# Assay results as given in patent US10654918B2, “Inflammatory disease diagnosis and methods of treatment using down-regulators of lipopolysaccharide-responsive beige-like anchor” (University of South Florida, priority 2013, dated 2020).
# Key:
# Type in all cases: cell-based, human
# [1] = test system: NF-κB; assay: NF-κB luciferase reporter and phospho-NFκB flow cytometry in Raji cells with LRBA knockdown
# Excerpt: (§1) FIG. 45A-D. Knockdown of LRBA deregulates NFκB. (A) Knockdown of LRBA increases NFκB luciferase activity. An NFκB luciferase reporter was used to measure the NFκB transcription activity. The data are shown as scatter with bar graph of mean with standard error of mean (SEM). (B) Knockdown of LRBA increases phospho-NFκB. The Phosflow kit including Cytofix Fixation Buffer, Phosflow Perm Buffer III and Stain Buffer (BD) and phospho-antibodies, NFκB p65 (pS529) PE-Cy7 were used for the intracellular staining following the company's instruction. For each samples, 50,000 cells were recorded for the FACS assay. (C) A549 cells were stably transfected with LRBA shRNA knockdown plasmid and several clones were picked up. […]
# FIGS. 46(A) and (B). […] NFκB luciferase activity was measured at each time point for both cell lines as in A. RLU: Relative Light Units. […]
# NF-κB is the central regulator of the immune system and plays a pivotal role in inflammation and immune responses. […] Raji cells were stimulated with LPS for different times from zero to several hours, and the NF-κB activity was measured by NF-κB luciferase reporter. […]
# Ready-To-Glow™ NF-κB Secreted Luciferase Reporter System (Clontech) and Firefly Luciferase Assay Kit (Biotium, Calif., USA) were used following the manufacture's instruction.
# [2] = test system: NFκB; assay: NFκB luciferase activity in A549 clones with LRBA shRNA knockdown; details: A549 clones with different knockdown levels, LPS 10 μg/ml; dose-dependent
# Excerpt: as §1, with “up. Half million of cells were seeded in a well of a 24 well plate and incubated overnight, then stimulated with LPS (10 μg/ml) for certain time. Luciferase assay Biotium. NFκB luciferase activity is inversely dose-dependent on the LRBA levels in A549 cells with different levels of LRBA knockdown judged by the GFP levels of the cells stably transfected with the LRBA shRNA/GFP construct. (D) LRBA KD#3, LRBA KD#4 and LRBA KD#5 clones express different levels of GFP expression from low to high. The GFP expression levels can be an indicator of shRNA expression levels and are inversely related to the levels of LRBA.” for “up.”
# [3] = test system: MAPKs [p42/44, p38 and Jun N-terminal kinase (JNK)]; assay: MAPK Western blot in Raji and Raji9 cells; details: LRBA KD Raji cells, LPS
# Description: FIGS. 47(A) and (B). Knockdown of LRBA deregulates MAPKs. Knockdown of LRBA upregulates p38 and JNK but downregulates p42/44. Half million of Raji or Raji9 cells were put in a well in a 6 well plate. After 24 hr, cells were treated with or without LPS for the time as indicated. 200 μl RIPA buffer with protease inhibitors and PMSF. (A) Western blot of cells was performed. 30 μl of cell extracts were loaded to ach well. Phosphorylated protein levels were normalized to β-Actin shown as the numbers between the two blots. (B) curves based on the Western blots. Quantity One software was used to quantify the levels.
# Like NF-κB, the mitogen-activated protein kinases (MAPKs) act as funnels to collect many stress-activated signals but function as bottle necks to filter and process these signals, and then have many diverse targets(26). Specifically, MAPKs are critical downstream hubs of the TLR4/LPS signal transduction(27) and may be affected by LRBA deficiency. The expression and activation of the three major MAPKs [p42/44, p38 and Jun N-terminal kinase (JNK)] were examined in Raji cells. […] The phospho-p42/44 measured by flow cytometry intracellular staining also is decreased (data not shown). […] The Drosophila MAPK and JNK have 82% and 78% identities with their human orthologues, respectively.
molecule,measurement,setting,value
LRBA shRNA: shRNA plasmid against LRBA; targeted LRBA sequence SEQ ID No. 15 GGGATATTGTAGAAACTGTCTTT (nucleic acid) sense: GGGATATTGTAGAAACTGTCTTTTTCAAGAGAAAAGACAGTTTCTACAATATCCCTTTTTT antisense: CCCTATAACATCTTTGACAGAAAAAGTTCTCTTTTCTGTCAAAGATGTTATAGGGAAAAAA,"phospho-NFκB (pS529), flow cytometry",[1]; Raji cells,increases
same,average levels of the NF-κB activity (luciferase reporter),"[1]; Raji cells stimulated with LPS, zero to several hours",higher
same,NFκB luciferase activity,[2],increases
same,JNK kinase activity,[3],increased
same,p38 kinase activity,[3],increased
same,p42/44 kinase activity,[3],reduced
